Test results published in the supplement of paper PMC10567573.
± gives the standard deviation.

Assay: protein stability index of a GFP-peptide fusion (GPS, HEK-293T) (PSI 1-6); higher = more stable
[1] = treatment: DMSO, c terminus: a fixed tail appended
[2] = treatment: MLN4924 1 uM, 8 h, c terminus: a fixed tail appended
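Also: 24-mer peptide tiles fused after GFP, lentivirally expressed, FACS-sorted into six equal bins by GFP/DsRed ratio, decoded by Illumina sequencing, PSI is the read-weighted mean bin number.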

| Sequence | protein stability index [1] | protein stability index [2] | protein stability index (treatment: DMSO, c terminus: native) | protein stability index (treatment: MLN4924 1 uM, 8 h, c terminus: native) |
| --- | --- | --- | --- | --- |
| IQSGAWVCYQYPGYRGYQYILECD [CRYBA1] | 2.39 ± 0.38 | 2.58 ± 0.59 |  |  |
| MEPAVSEPMRDQVARTHLTEDTPK [NSDHL] | 5.57 ± 0.16 | 5.51 ± 0.22 |  |  |
| GRQPCGRFLRAYREGALRAALQRS [TRADD] | 2.56 ± 0.15 | 2.45 ± 0.4 |  |  |
| QTMAGSSPNTPQPVPEQSALCQGL [FAM104A] | 4.75 ± 0.19 | 4.84 ± 0.17 |  |  |
| FMYFLRGSLPWQGLKADTLKERYQ [CSNK1G1] | 2.43 ± 0.35 | 2.26 ± 0.17 |  |  |
| KVKKSGSRVMFLLVDKETDKRHVE [PDZK1] |  | 3.4 ± 0.19 |  |  |
| TGEKLLELNGHTQKITAIITFPSL [WDR41] | 2.45 ± 0.58 | 2.3 ± 0.55 |  |  |
| KGAPASWWNHMHFQHHAKPNCFRK [FADS1] | 2.87 ± 0.18 | 3.01 ± 0.43 |  |  |
| ERPGAEGAPLLPPPLPPPSPPGSG [ACBD3] | 5.54 ± 0.24 | 5.47 ± 0.19 |  |  |
| CQGQRLFEKLLQLTSQNIEIKLVS [PLD5] | 2.35 ± 0.19 | 2.29 ± 1.3 |  |  |
| APPRRLRSRKVSCPLTRSNGDLSR [FCHO1] | 4.16 ± 0.17 | 4.34 ± 0.062 |  |  |
| VYTNLSSYSPASASSGGAGAAVGT [JUNB] | 3.26 ± 0.29 | 3.49 ± 0.27 |  |  |
| CAINKVGVSFSTVENELMISYLMF [FAM98B] | 2.63 ± 0.48 | 2.81 ± 0.41 |  |  |
| HNAHQLAAWCLHHICTNYNSVCSK [RHOBTB1] | 2.85 ± 0.55 | 2.79 ± 0.59 |  |  |
| CSKQSGSFRKFRYGYNNVVTIPAG [ADAMTS4] | 2.3 ± 0.44 | 2.23 ± 0.35 |  |  |
| TANCEACTLGICGQGLKSYMTKPS [RTP4] | 2.89 ± 0.025 | 3.01 ± 0.26 |  |  |
| TIKKRLENNYYWSASECMQDFNTM [BRD3] | 2.08 ± 0.47 | 2.15 ± 0.43 |  |  |
| YRVLLGHTLILMFIWFVCSLVYYG [SLC22A15] | 2.32 ± 0.53 | 2.33 ± 0.57 |  |  |
| EVFRFVQSCARAVVPSYIPLVKKH [CPOX] | 2.12 ± 0.21 | 2.37 ± 0.33 |  |  |
| STLKKALPTLSHIQEAQSAWKDDF [YJU2B] | 3.53 ± 0.36 | 3.75 ± 0.09 |  |  |
| SLADQMSLLQSAWMEILILGVVYR [ESRRG] | 2.88 ± 0.55 | 2.86 ± 0.42 |  |  |
| HQLVMEGYNWCHDRNVVTIFSAPN [PPP2CA] | 2.51 ± 0.14 | 2.49 ± 0.18 |  |  |
| KSSGKHYGQFTCEGCKSFFKRSVR [NR2F2] | 2.37 ± 0.18 | 2.68 ± 0.41 |  |  |

| Sequence | protein stability index [1] | protein stability index [2] | protein stability index (treatment: DMSO, c terminus: native) | protein stability index (treatment: MLN4924 1 uM, 8 h, c terminus: native) |
| --- | --- | --- | --- | --- |
| LGRTGLYPSYKVREKIETVKYPTY [FUT8] | 2.42 ± 0.12 | 2.51 ± 0.14 |  |  |
| FTGKAEMGGPFSYVYFFCTVPEIL [TMEM106C] | 2.72 ± 0.59 | 2.16 ± 0.87 |  |  |
| IQRIDENVLGAQLDVEAAHSEILK [STX5] | 4.15 ± 0.17 | 4.22 ± 0.25 |  |  |
| ENNYYWSASECMQDFNTMFTNCYI [BRD3] | 2.28 ± 0.67 | 2.49 ± 0.44 |  |  |
| VKMALDIEIATYRKLLEGEESRIS [PRPH] | 2.61 ± 0.13 | 2.7 ± 0.39 |  |  |
| PLVTPPQSPVSPQPPAITQVHRQG [SMTNL2] | 4.56 ± 0.35 | 4.58 ± 0.053 |  |  |
| QVEKNKYDASAIDFSRCDMDGATL [ELF3] | 4.63 ± 0.23 | 4.58 ± 0.14 |  |  |
| TMSIPVAMETDGPLFEDVQMLRKT [PPP2R5C] | 4.22 ± 0.12 | 4.3 ± 0.1 |  |  |
| LGPQVSLDPMKNVTCENGLPAVVS [LOXL2] | 4.3 ± 0.97 | 4.12 ± 0.25 |  |  |
| GVLILFLTFFAFLHCWLNAFAEML [SOAT1] | 2.88 ± 0.4 | 2.85 ± 0.36 |  |  |
| GSIPGFLISSGMSSHKQGHTSSEY [TAF7L] | 3.25 ± 0.23 | 3.29 ± 0.29 |  |  |
| VPLWGQLLLFLVFVIVLFFIYHFM [EMD] | 2.41 ± 0.17 | 2.17 ± 0.47 |  |  |
| LLSCGKILTGCKNMLFQQNKDGIG [ACSBG2] | 2.13 ± 0.42 | 2.23 ± 0.17 |  |  |
| ENFDHNTLALILQIPTQNTQARQV [PPFIA4] | 2.58 ± 0.21 | 2.81 ± 0.45 |  |  |
| HAQTFVALCATDVKFISNPPSMVA [CCND1] | 2.11 ± 0.29 | 2.08 ± 0.46 |  |  |
| ILAVSFAPLVQPSKNDNGKPDSVG [PCMTD1] | 2.98 ± 0.27 | 3.14 ± 0.35 |  |  |
| MQNLNDRLASYLDKVRALEEANAD [KRT15] | 4.22 ± 0.32 | 4.37 ± 0.23 |  |  |
| LMSESEWRNLGVQQSQGWVHYMIH [CKS1B] | 2.42 ± 0.35 | 2.05 ± 0.31 |  |  |
| SVLVILISIVIFCLETLPEFRDDR [KCNA4] | 2.99 ± 0.29 | 2.96 ± 0.5 |  |  |
| KIDYCASSNHGCQHECVNTDDSYS [MATN2] | 4.37 ± 0.18 | 4.5 ± 0.18 |  |  |
| VAAACACGFTVAQIITSLVFHLPF [OR10K2] | 3.43 ± 0.54 | 3.42 ± 0.68 |  |  |
| DGEVPQHAGKKGKLSEHLRYCDSI [BRD3] | 4.59 ± 0.23 | 4.76 ± 0.23 |  |  |
| LKNKKGAKQQKFIKAVTHQVKFGQ [ZC3H15] | 3.14 ± 0.57 | 3.25 ± 0.39 |  |  |

| Sequence | protein stability index [1] | protein stability index [2] | protein stability index (treatment: DMSO, c terminus: native) | protein stability index (treatment: MLN4924 1 uM, 8 h, c terminus: native) |
| --- | --- | --- | --- | --- |
| HGDSQQTHLLKQGRSSMGTGLSGG [CRY1] | 4.36 ± 0.16 | 4.43 ± 0.14 |  |  |
| ALQTLLTLIVVDASGLGLEITTQF [SLC19A2] | 3 ± 0.39 | 3.31 ± 0.56 |  |  |
| GHHLLKWIIKSNYQGLPVRCVKSI [SRPK2] | 2.2 ± 0.56 | 2.33 ± 0.34 |  |  |
| PTEGQGSLLTNWPSVPPTIKEEEN [MYBL2] | 5.46 ± 0.23 | 5.42 ± 0.18 |  |  |
| KVPSEAPSPMPTHRSYLGPGSTSP [SLC6A17] | 4.66 ± 0.069 | 4.71 ± 0.32 |  |  |
| RKRKQSGHSPARAGKQRMKEKEQE [DDIT3] | 5.15 ± 0.34 | 5.51 ± 0.38 |  |  |
| GELPNHPKPAGGAIPTKKSLPSPS [FBF1] | 5.2 ± 0.25 | 5.25 ± 0.16 |  |  |
| NLRLQRKLQREMERREALCRQLSE [CCDC6] | 3.52 ± 0.27 | 3.63 ± 0.43 |  |  |
| RDAAGKPQRPRSAPRTSSCAERLQ [FCHO1] | 4.75 ± 0.15 | 4.68 ± 0.098 |  |  |
| IGPLETMHLNAEGMLSYCDRYSEG [CRYL1] | 3.47 ± 0.48 | 3.27 ± 0.28 |  |  |
| GDPEEPLTGFSWRGGSDPETTGIQ [ATL3] | 5.13 ± 0.22 | 5.17 ± 0.12 |  |  |
| VAALREEQKVLSRLVESLSTQIRA [RASAL3] | 2.34 ± 0.35 | 2.38 ± 0.11 |  |  |
| KLNLPDYHKIIKNPMDMGTIKKRL [BRD3] | 2.41 ± 0.17 | 2.48 ± 0.42 |  |  |
| QTESALSKKLRAILPKQSRKSMLD [LCOR] | 3.05 ± 0.098 | 3.14 ± 0.2 |  |  |
| QGPISTKELADFIRERATIEETYS [FCHO1] | 3.13 ± 0.21 | 3.26 ± 0.32 |  |  |
| KPVDIWACGVILYILLVGYPPFWD [CAMK2B] | 3.27 ± 0.31 | 3.03 ± 0.17 |  |  |
| KMGGKDFSFRYQQELEEEIKELYE [ATL3] | 2.52 ± 0.51 | 2.87 ± 0.32 |  |  |
| LVGNKSDLRHLRAVPTDEARAFAE [RAB11A] | 4.29 ± 0.34 | 4.39 ± 0.21 |  |  |
| LMDGGDLPSVTDIRRPRLYLLQWL [PLK2] | 2.48 ± 0.17 | 2.5 ± 0.27 |  |  |
| LSIQVEEERRAREWLLDAPELPEG [ZMAT5] | 4.71 ± 0.34 | 5.06 ± 0.41 |  |  |
| GVGKSAMTMQFISHRFPEDHDPTI [RIT1] | 3.4 ± 0.24 | 3.46 ± 0.37 |  |  |
| CEMEQQSQEYQILLDVKTRLEQEI [KRT16] | 4.1 ± 0.39 | 4.11 ± 0.37 |  |  |
| QLIGSSNLFVMQVEMDIYTALKKW [GMCL1] | 2.57 ± 0.61 | 2.28 ± 0.81 |  |  |

| Sequence | protein stability index [1] | protein stability index [2] | protein stability index (treatment: DMSO, c terminus: native) | protein stability index (treatment: MLN4924 1 uM, 8 h, c terminus: native) |
| --- | --- | --- | --- | --- |
| MALEPNTTFLRKSLKAALKHLGP [FANCE] |  |  | 2.48 ± 0.25 | 2.33 ± 0.17 |
| IKKLIYVHLVIWLLLVAKMSVGHL [JAGN1] | 3.31 ± 0.35 | 3.13 ± 0.24 |  |  |
| KDPRDPEESKEPKEEKQRRRCKPK [GNAS] | 5.37 ± 0.26 | 5.26 ± 0.3 |  |  |
| QGLKLYAVEISDHPGEHEVGEPEF [CPXM2] | 4.5 ± 0.55 | 5.11 ± 0.06 |  |  |
| DVGENLTVPDEFTVEERQTGMWWR [SLC25A25] | 4.18 ± 0.14 | 4.16 ± 0.28 |  |  |
| EPFSARVLVLCVFNSILPGVLILF [SOAT1] | 3.05 ± 0.14 | 3.06 ± 0.22 |  |  |
| TIKLWKITERDKRPEGYNLKDEEG [PPP2R2C] | 4.05 ± 0.25 | 4.03 ± 0.17 |  |  |
| FHCSMSPGNLEKNRYGDVPCLDQT [PTPN9] | 2.79 ± 0.51 | 2.82 ± 0.47 |  |  |
| FNGLTLLLMAVVSMFTLPVVYVKH [RTN1] | 3.3 ± 0.28 | 3 ± 0.41 |  |  |
| SSHEVKALGAMWKLHKSQLSQALN [TRIM9] | 2.7 ± 0.41 | 2.58 ± 0.27 |  |  |
| LQFTILLSLIGVRVDVDTYLTSQL [NFE2L1] | 2.97 ± 0.47 | 3.13 ± 0.27 |  |  |
| QLFSQIGPCKNCKMIMDTAGNDPY [TIA1] | 2.32 ± 0.1 | 2.45 ± 0.28 |  |  |
| PQPHRNRAGLDLPTIDTGYDSQPQ [TRAF3IP2] | 4.58 ± 0.2 | 4.76 ± 0.19 |  |  |
| AALDGGRSLEELTRLAFELFAEEQ [LPCAT4] | 2.91 ± 0.24 | 3.33 ± 0.38 |  |  |
| EKQIRSFLIEGPLINTIRVVCASY [PLEKHN1] | 3.13 ± 0.74 | 2.79 ± 0.48 |  |  |
| VQKDKYPEEFSLLKLQTKDGHRPE [SPATS1] | 4.64 ± 0.23 | 5 ± 0.33 |  |  |
| MGSSQATMTSSQSMNFSMMSTNTV [CLINT1] | 3.28 ± 0.27 | 3.64 ± 0.25 |  |  |
| CEGRRTRFRSCNTEDCPTGSALTF [ADAMTS4] | 3.42 ± 0.18 | 3.29 ± 0.092 |  |  |
| SKLASNGTPMGTFAPLWEVFRVSS [FCHO1] | 2 ± 0.3 | 2.26 ± 0.22 |  |  |
| PGARGLWKPPDIKGKLMVCYETLP [SPAG8] | 2.56 ± 0.26 | 2.51 ± 0.16 |  |  |
